{
  "source": "patent US20060057623A1",
  "target": "p300 (UniProt Q09472)",
  "sequence (Q09472 2-2414 limits assumed)": "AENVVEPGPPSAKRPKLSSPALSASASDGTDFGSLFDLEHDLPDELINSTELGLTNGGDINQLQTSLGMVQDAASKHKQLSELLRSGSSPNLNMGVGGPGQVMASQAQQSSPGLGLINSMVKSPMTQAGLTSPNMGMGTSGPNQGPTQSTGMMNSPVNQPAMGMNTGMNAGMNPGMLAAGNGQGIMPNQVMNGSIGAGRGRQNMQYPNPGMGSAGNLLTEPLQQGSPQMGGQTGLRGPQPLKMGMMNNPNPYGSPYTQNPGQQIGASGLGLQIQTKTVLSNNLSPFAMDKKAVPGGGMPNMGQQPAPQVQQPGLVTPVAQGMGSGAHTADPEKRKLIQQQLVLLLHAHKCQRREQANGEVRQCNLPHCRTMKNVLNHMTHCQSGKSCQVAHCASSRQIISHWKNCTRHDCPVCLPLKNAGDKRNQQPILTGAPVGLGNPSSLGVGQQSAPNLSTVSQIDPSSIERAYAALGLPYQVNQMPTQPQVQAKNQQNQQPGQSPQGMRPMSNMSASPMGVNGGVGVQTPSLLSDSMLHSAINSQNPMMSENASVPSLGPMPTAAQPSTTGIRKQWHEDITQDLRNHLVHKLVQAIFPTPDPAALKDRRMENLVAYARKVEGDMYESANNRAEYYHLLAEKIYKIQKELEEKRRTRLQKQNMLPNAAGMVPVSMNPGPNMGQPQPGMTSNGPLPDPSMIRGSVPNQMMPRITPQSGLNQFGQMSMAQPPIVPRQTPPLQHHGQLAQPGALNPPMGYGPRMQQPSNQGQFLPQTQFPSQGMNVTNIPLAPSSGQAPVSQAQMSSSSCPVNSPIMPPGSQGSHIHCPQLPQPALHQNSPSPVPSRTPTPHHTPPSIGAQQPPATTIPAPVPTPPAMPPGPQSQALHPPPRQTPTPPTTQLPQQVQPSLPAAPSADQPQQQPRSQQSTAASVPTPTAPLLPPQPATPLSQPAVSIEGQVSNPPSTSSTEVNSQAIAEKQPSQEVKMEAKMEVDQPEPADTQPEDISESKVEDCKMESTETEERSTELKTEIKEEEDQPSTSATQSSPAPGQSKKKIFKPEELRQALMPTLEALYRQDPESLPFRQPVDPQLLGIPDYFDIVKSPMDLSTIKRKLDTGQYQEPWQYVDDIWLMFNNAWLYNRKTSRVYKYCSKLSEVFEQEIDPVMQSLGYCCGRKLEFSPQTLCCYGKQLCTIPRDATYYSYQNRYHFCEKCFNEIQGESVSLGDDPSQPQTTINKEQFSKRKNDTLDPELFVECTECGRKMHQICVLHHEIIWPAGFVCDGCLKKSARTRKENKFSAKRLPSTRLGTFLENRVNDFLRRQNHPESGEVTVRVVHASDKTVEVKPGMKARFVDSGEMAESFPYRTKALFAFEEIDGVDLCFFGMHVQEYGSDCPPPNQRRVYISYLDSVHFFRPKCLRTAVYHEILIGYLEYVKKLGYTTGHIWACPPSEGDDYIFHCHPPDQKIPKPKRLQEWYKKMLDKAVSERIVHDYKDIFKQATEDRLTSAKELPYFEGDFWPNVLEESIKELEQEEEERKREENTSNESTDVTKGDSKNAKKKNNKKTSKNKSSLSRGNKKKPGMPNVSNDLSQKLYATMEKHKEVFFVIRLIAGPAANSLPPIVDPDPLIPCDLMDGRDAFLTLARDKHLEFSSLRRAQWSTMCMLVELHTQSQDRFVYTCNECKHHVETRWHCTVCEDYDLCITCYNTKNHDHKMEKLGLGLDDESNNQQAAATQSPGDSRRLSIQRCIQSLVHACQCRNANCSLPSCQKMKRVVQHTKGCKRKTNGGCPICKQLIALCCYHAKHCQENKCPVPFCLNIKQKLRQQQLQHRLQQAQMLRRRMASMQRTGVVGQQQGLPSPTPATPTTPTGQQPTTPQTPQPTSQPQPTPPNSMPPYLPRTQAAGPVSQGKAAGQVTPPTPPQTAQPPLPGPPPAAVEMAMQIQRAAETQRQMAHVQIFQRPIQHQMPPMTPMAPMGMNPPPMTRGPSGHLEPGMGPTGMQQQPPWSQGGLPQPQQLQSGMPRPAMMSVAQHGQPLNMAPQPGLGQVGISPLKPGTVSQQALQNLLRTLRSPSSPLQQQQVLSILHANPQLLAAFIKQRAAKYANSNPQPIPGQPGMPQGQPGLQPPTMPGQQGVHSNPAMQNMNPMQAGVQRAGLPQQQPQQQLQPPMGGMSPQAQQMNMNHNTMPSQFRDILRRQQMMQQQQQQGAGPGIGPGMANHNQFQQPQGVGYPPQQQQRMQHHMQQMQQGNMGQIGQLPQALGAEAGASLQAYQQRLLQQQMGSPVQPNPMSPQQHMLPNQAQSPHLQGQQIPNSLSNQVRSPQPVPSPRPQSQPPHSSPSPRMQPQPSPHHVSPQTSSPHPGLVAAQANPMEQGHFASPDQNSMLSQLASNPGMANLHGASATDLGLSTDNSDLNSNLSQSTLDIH",
  "experiment": "cell-based or functional assay",
  "data": [
    {"substance": "E1AΔ2-36, a p300 binding-defective mutant", "values": [
      {"measurement": "cyclin D1 promoter CD1 (-1745/+134) luciferase activity with SENP1 (PC-3 cells)", "value": 38, "unit": "%"}
    ]}
  ]
}
